Measured values as given in US20210032312A1 (Janssen / Centocor, published 2021).

Tests used:
human CD8A-Fc (in house) = biological target: T1, human CD8A-Fc (in house) (human, UniProt P01732 22-182, limits assumed); experiment: SPR (ProteOn), captured hCD8A-Fc
T1 construct: captured by goat anti-human Fc on the ProteOn chip; also called hCD8A-Fc; recombinant human CD8 alpha; not shown: linker/tag and Fc of human IgG1

[1] = biological target: T2, cynomolgus monkey CD8 alpha on primary cynomolgus CD8+ T cells (cynomolgus monkey, UniProt P01732 23-235 (human entry)); experiment: flow cytometry, cyno CD8+ T cells
T2 construct: also called Cyno CD8alpha; cyno CD8A
Procedure: (§1) Binding of the 190 ELISA hits to human and cynomologous monkey primary CD8 T cells was assessed by flow cytometry. The FN3 domain molecules were diluted to 2 μM and 0.2 μM in PBS and incubated with human or cynomologous monkey CD8+ T cells in 96-well format. After 1 hour at 4 C, the cells were washed once with PBS and then resuspended with an anti-FN3 domain antibody (PAB25) solution. Following this incubation, the cells were washed twice with PBS and a PE conjugated secondary antibody and a viability dye were added. Finally, cells were washed and resuspended in PBS for flow cytometric analysis using a BD Canto Instrument. Cells were gating on live cells and median fluorescence intensity of the bound Centyrins (PE channel) was calculated using Cytobank software.

[2] = biological target: T3, human CD8 alpha (CD8A) on primary human CD8+ T cells (human, UniProt P01732 22-235); experiment: flow cytometry, human CD8+ T cells
T3 construct: whole, on cells; also called hCD8A
Procedure: as §1

T3 sequence (P01732 22-235): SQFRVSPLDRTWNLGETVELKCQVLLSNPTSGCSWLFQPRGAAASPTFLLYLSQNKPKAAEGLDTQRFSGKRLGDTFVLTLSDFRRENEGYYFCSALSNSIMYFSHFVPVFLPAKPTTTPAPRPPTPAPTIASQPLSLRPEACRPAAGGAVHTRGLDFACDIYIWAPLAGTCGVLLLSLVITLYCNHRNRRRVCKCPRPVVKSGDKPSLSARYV
T1 sequence (P01732 22-182 limits assumed): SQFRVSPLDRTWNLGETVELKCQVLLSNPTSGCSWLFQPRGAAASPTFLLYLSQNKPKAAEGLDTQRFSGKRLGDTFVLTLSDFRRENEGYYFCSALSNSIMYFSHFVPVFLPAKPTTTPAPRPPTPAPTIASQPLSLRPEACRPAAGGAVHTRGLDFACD
T2 sequence (P01732 other isoform, or with tags, fused parts or gaps limits assumed): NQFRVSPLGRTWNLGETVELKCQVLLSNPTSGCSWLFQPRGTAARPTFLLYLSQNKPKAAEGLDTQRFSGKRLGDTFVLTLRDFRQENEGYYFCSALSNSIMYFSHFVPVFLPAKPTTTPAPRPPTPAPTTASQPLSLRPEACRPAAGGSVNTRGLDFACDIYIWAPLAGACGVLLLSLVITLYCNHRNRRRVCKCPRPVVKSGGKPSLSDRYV

Binder | koff (human CD8A-Fc (in house)) [s⁻¹] | Cyno T-cell Binding 0.2 uM (MFI) [1] [MFI] | Cyno T-cell Binding 2 uM (MFI) [1] [MFI] | Human T-cell Binding 0.2 uM (MFI) [2] [MFI] | Human T-cell Binding 2 uM (MFI) [2] [MFI]
P283DR9P1364_D11 (designed binder, FN3 domain) LPAPKNLVVSRVTEDSARLSWTAPDAAFDSFDIAYPEWPPKGEAIVLTVPGSERSYDLTGLKPGTEYFVVIYGVKGGIHSAPLSAIFTT | 0.000514 | 16200 | 70400 | 4220 | 32300
P283DR9P1364_E9 (designed binder, FN3 domain) LPAPKNLVVSRVTEDSARLSWTAPDAAFDSFDIAYPEWPTKGEAIVLTVPGSERSYDLTGLKPGTEYFVVINGVKGGWRSFPLSAIFTT | 0.0019 | 2100 | 19700 | 548 | 4300
P283DR9P1364_E5 (designed binder, FN3 domain) LPAPKNLVVSRVTEDSARLSWTAPDAAFDSFWISYPEWPVPGEAIVLTVPGSERSYDLTGLKPGTEYWVIIQGVKGGKLSWPLSAIFTT | 0.000825 | 5090 | 55700 | 1270 | 17600
P283DR9P1364_H6 (designed binder, FN3 domain) LPAPKNLVVSRVTEDSARLSWTAPDAAFDSFIIAYPETPVRGEAIVLTVPGSERSYDLTGLKPGTEYFVIIIGVKGGQESFPLSAIFTT | 0.0023 | 418 | 6000 | 268 | 2620
P283DR9P1364_E7 (designed binder, FN3 domain) LPAPKNLVVSRVTEDSARLSWTAPDAAFDSFNIAYPEWPVRGEAIVLTVPGSERSYDLTGLKPGTEYWVIIYGVKGGDRSNPLSAIFTT | 0.00243 | 2240 | 28700 | 442 | 5390
P283DR9P1364_E3 (designed binder, FN3 domain) LPAPKNLVVSRVTEDSARLSWTAPDAAFDSFGIAYPELPIGGEAIVLTVPGSERSYDLTGLKPGTEYFVIIRGVKGGTLSPPLSAIFTT | 0.00253 | 887 | 9130 | 317 | 1280
P283DR9P1364_F2 (designed binder, FN3 domain) LPAPKNLVVSRVTEDSARLSWTAPDAAFDSFWIAYPEWPVPGEAIVLTVPGSERSYDLTGLKPGTEYFVIIQGVKGGFGSFPLSAIFTT | 0.000161 | 16900 | 91500 | 6250 | 39200
P283DR9P1364_G9 (designed binder, FN3 domain) LPAPKNLVVSRVTEDSARLSWTAPDAAFDSFGIWYPEWPVGGEAIVLTVPGSERSYDLTGLKPGTEYWVNISGVKGGEYSFPLSAIFTT | 0.00779 | 2800 | 47100 | 401 | 9890
P283DR9P1364_H1 (designed binder, FN3 domain) LPAPKNLVVSRVTEDSARLSWTAPDAAFDSFQISYPEWPVHGEAIVLTVPGSERSYDLTGLKPGTEYWVIIWGVKGGRQSWPLSAIFTT | 0.000613 | 10600 | 54000 | 3030 | 29200
P283DR9P1364_G10 (designed binder, FN3 domain) LPAPKNLVVSRVTEDSARLSWTAPDAAFDSFSIAYPEWPGSGEAIVLTVPGSERSYDLTGLKPGTEYFVVIFGVKGGSQSWPLSAIFTT | 0.00253 | 769 | 10900 | 409 | 6290

The remaining lines, values ahead:

koff (human CD8A-Fc (in house)) [s⁻¹] | Cyno T-cell Binding 0.2 uM (MFI) [1] [MFI] | Cyno T-cell Binding 2 uM (MFI) [1] [MFI] | Human T-cell Binding 0.2 uM (MFI) [2] [MFI] | Human T-cell Binding 2 uM (MFI) [2] [MFI] | Binder
0.000964 | 9460 | 60600 | 834 | 11500 | P283DR9P1364_H11 (designed binder, FN3 domain) LPAPKNLVVSRVTEDSARLSWTAPDAAFDSFDIAYPELPLGGEAIVLTVPGSERSYDLTGLKPGTEYFVIIWGVKGGDRSEPLSAIFTT
0.00226 | 1650 | 39400 | 516 | 8780 | P283FR9P1366_A1 (designed binder, FN3 domain) LPAPKNLVVSRVTEDSARLSWTAPDAAFDSFWITYPEWPVPGEAIVLTVPGSERSYDLTGLKPGTEYAVFIWGVKGGDASEPLSAIFTT
0.00176 | 8140 | 87600 | 1530 | 27800 | P283FR9P1366_D12 (designed binder, FN3 domain) LPAPKNLVVSRVTEDSARLSWTAPDAAFDSFDIAYPEWPLGGEAIVLTVPGSERSYDLTGLKPGTEYWVIILGVKGGDQSWPLSAIFTT
0.00394 | 580 | 8810 | 252 | 1720 | P283FR9P1366_A9 (designed binder, FN3 domain) LPAPKNLVVSRVTEDSARLSWTAPDAAFDSFNIAYGEYPGPGEAIVLTVPGSERSYDLTGLKPGTEYWVPIWGVKGGELSEPLSAIFTT
0.00134 | 2300 | 28200 | 413 | 3390 | P283FR9P1366_D8 (designed binder, FN3 domain) LPAPKNLVVSRVTEDSARLSWTAPDAAFDSFEIAYPEIPIAGEAIVLTVPGSERSYDLTGLKPGTEYFVIIYGVKGGDWSDPLSAIFTT
0.00115 | 4670 | 51200 | 899 | 11400 | P283FR9P1366_B7 (designed binder, FN3 domain) LPAPKNLVVSRVTEDSARLSWTAPDAAFDSFWITYPEWPVNGEAIVLTVPGSERSYDLTGLKPGTEYWVVIWGVKGGVESPPLSAIFTT
0.00207 | 1040 | 4630 | 407 | 1820 | P283FR9P1366_C3 (designed binder, FN3 domain) LPAPKNLVVSRVTEDSARLSWTAPDAAFDSFKIAYPEWPDGGEAIVLTVPGSERSYDLTGLKPGTEYFVIIYGVKGGILSPPLSAIFTT
0.000585 | 10900 | 67800 | 3600 | 27600 | P283FR9P1366_A5 (designed binder, FN3 domain) LPAPKNLVVSRVTEDSARLSWTAPDAAFDSFWIAYPEWPTRGEAIVLTVPGSERSYDLTGLKPGTEYFVVIYGVKGGSPSPPLSAIFTT
0.00143 | 1680 | 26200 | 483 | 4540 | P283FR9P1366_C6 (designed binder, FN3 domain) LPAPKNLVVSRVTEDSARLSWTAPDAAFDSFSIAYPEWPVYGEAIVLTVPGSERSYDLTGLKPGTEYFVVIYGVKGGNYSDPLSAIFTT
0.000509 | 10400 | 79600 | 4550 | 32900 | P283FR9P1366_D6 (designed binder, FN3 domain) LPAPKNLVVSRVTEDSARLSWTAPDAAFDSFNIFYPELVFPGEAIVLTVPGSERSYDLTGLKPGTEYWVNISGVKGGEHSWPLSAIFTT
0.000491 | 19300 | 89200 | 4320 | 41000 | P283FR9P1366_C2 (designed binder, FN3 domain) LPAPKNLVVSRVTEDSARLSWTAPDAAFDSFKISYPEWPPEGEAIVLTVPGSERSYDLTGLKPGTEYAVFIWCVKGGEHSWPLSAIFTT
0.000536 | 10200 | 63400 | 3750 | 33800 | P283FR9P1366_C4 (designed binder, FN3 domain) LPAPKNLVVSRVTEDSARLSWTAPDAAFDSFNIAYPEWPVRGEAIVLTVPGSERSYDLTGLKPGTEYWVIIIGVKGGEDSWPLSAIFTT
0.000354 | 2580 | 41400 | 566 | 7520 | P283FR9P1366_D7 (designed binder, FN3 domain) LPAPKNLVVSRVTEDSARLSWTAPDAAFDSFSIAYPELPVKGEAIVLTVPGSERSYDLTGLKPGTEYFVVIWGVKGGTYSGPLSAIFTT
